The text below walks through data of patent US20020151484A1 (HYBRIGENICS, published 2002).

What all share (assay): yeast two-hybrid, mating, His3/LacZ reporters
Test [1] addresses T1, Bait polypeptide of SEQ ID No 97, NS4B (100%), HCV strain H77 nt 6011-6177 (hepatitis C virus strain H77, UniProt O92972 1891-1944).
T1 construct: also called Bait NS4B (100%)
T1 sequence: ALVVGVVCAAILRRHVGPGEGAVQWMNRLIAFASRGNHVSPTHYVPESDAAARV

In test [2] the target is T2, Bait polypeptide of SEQ ID No 102, NS5A (100%), HCV strain H77 nt 6317-6576 (hepatitis C virus strain H77, UniProt P26664 1993-2077).
T2 construct: also called Bait NS5A (100%)
T2 chain: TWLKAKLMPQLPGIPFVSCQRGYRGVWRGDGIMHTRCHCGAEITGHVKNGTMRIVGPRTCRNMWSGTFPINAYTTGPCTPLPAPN

For test [3], the target named is T3, Bait polypeptide of SEQ ID No 96, NS4B (82%)/NS5A(17%), HCV strain H77 nt 5897-6335 (hepatitis C virus strain H77, UniProt P26664 1853-1997).
T3 construct: also called Bait NS4B (82%)/NS5A(17%)
T3 sequence: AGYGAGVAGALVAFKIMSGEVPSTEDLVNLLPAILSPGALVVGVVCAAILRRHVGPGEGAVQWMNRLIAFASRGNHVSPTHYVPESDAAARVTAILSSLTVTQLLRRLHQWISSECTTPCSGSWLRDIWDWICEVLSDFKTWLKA

In test [4] the target is T4, Bait polypeptide of SEQ ID No 101, NS4B (9%)/NS5A (90%), HCV strain H77 nt 6188-6939 (hepatitis C virus strain H77, UniProt P27958 1950-2198).
T4 construct: also called Bait NS4B (9%)/NS5A (90%)
T4 chain: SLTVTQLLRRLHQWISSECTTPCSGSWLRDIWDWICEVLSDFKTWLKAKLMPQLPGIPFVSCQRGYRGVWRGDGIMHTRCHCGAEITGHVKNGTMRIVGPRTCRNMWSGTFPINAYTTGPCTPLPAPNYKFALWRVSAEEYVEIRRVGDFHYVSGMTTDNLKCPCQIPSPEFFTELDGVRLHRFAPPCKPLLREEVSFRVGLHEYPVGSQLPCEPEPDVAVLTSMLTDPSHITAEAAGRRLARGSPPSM

Test [5] deals with T5, SID polypeptide of SEQ ID No 23, NS4B (100%), HCV strain H77 nt 5879-6072 (hepatitis C virus strain H77, UniProt Q913V3 1847-1909).
T5 construct: Intersection of yeast two-hybrid prey fragments; also called SID NS4B (100%)
T5 sequence: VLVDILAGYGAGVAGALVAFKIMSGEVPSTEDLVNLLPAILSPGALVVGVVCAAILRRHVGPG

For test [6], the target named is T6, Bait polypeptide of SEQ ID No 100, NS4B (8%)/NS5A (91%), HCV strain H77 nt 6182-7034 (hepatitis C virus strain H77, UniProt P27958 1948-2230).
T6 construct: also called Bait NS4B (8%)/NS5A (91%)
T6 chain: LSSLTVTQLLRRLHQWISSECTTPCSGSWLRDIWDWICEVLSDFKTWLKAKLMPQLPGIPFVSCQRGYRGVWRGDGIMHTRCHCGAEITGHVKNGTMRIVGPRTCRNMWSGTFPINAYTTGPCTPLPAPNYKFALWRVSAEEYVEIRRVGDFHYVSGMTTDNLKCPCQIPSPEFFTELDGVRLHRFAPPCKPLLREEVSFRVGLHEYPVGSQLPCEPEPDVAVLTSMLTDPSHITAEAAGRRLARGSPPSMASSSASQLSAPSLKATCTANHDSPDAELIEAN

For test [7], the target named is T7, SID polypeptide of SEQ ID No 28, NS5A (100%), HCV strain H77 nt 6557-6721 (hepatitis C virus strain H77, UniProt P27958 2073-2125).
T7 construct: Intersection of yeast two-hybrid prey fragments; also called SID NS5A (100%)
T7 sequence: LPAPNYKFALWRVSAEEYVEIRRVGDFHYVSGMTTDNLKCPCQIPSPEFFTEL

Test [8] concerns the target T8, Bait polypeptide of SEQ ID No 95, NS4B (55%)/NS5A (44%), HCV strain H77 nt 5882-6562 (hepatitis C virus strain H77, UniProt P26664 1848-2072).
T8 construct: also called Bait NS4B (55%)/NS5A (44%)
T8 chain: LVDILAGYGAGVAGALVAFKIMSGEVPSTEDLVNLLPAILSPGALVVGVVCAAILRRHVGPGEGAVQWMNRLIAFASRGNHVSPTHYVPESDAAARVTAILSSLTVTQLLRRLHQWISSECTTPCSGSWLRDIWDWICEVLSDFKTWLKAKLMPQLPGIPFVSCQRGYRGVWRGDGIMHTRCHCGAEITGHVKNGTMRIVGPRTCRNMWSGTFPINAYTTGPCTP

Test [9] deals with T9, Bait polypeptide of SEQ ID No 93, NS4B (86%)/NS5A (13%), HCV strain H77 nt 5717-6344 (hepatitis C virus strain H77, UniProt P26664 1793-2000).
T9 construct: also called Bait NS4B (86%)/NS5A (13%)
T9 chain: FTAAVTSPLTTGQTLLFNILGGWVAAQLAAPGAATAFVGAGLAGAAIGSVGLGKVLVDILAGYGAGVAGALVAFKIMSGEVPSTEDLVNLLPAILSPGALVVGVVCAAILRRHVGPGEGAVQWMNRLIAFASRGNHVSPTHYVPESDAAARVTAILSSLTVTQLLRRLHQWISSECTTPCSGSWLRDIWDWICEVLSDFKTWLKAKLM

In test [10] the target is T10, Bait polypeptide of SEQ ID No 78, Core (100%), HCV strain H77 nt 342-683 (hepatitis C virus strain H77, UniProt P27958 1-113).
T10 construct: also called Bait Core (100%)
T10 sequence: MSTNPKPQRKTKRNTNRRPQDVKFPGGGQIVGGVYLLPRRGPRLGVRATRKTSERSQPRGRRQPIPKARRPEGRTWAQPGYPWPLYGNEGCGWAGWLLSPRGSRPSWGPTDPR

For test [11], the target named is T11, Bait polypeptide of SEQ ID No 87, NS3 (100%), HCV strain H77 nt 4238-4857 (hepatitis C virus strain H77, UniProt P27958 1300-1504).
T11 construct: also called Bait NS3 (100%)
T11 chain: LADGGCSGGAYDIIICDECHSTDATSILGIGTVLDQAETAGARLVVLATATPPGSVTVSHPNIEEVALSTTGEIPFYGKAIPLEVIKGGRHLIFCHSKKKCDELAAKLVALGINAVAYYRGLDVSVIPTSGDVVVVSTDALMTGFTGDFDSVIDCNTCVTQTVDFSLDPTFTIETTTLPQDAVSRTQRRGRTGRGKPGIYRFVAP

The target of test [12] is T12, SID polypeptide of SEQ ID No 16, NS4B (100%), HCV strain H77 nt 5918-6154 (hepatitis C virus strain H77, UniProt P26664 1860-1936).
T12 construct: Intersection of yeast two-hybrid prey fragments; also called SID NS4B (100%)
T12 sequence: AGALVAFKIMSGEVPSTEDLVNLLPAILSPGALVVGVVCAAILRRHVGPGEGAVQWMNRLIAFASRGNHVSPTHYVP

Test [13] deals with T13, Bait polypeptide of SEQ ID No 77, Core (87%), HCV strain H77 nt 302-614 (hepatitis C virus strain H77).
T13 construct: also called Bait Core (87%)
T13 chain: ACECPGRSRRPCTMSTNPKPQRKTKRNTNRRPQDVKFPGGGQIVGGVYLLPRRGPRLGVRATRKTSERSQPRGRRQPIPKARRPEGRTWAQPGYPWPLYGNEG

Test [14] concerns the target T14, Bait polypeptide of SEQ ID No 90, NS3 (100%), HCV strain H77 nt 4838-5230 (hepatitis C virus strain H77, UniProt P26664 1500-1628).
T14 construct: also called Bait NS3 (100%)
T14 chain: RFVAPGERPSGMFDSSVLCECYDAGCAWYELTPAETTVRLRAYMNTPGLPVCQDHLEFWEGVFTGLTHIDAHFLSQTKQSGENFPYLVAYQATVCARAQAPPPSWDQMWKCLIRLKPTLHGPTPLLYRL

Test [15] addresses T15, Bait polypeptide of SEQ ID No 89, NS3 (100%), HCV strain H77 nt 4691-5168 (hepatitis C virus strain H77, UniProt P26664 1451-1608).
T15 construct: also called Bait NS3 (100%)
T15 chain: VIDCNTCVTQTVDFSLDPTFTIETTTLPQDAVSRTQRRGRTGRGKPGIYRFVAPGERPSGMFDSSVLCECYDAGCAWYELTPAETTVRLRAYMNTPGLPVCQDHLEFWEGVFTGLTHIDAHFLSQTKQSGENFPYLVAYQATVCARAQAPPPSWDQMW

B1: SID polypeptide of SEQ ID No 22, E2 (100%), HCV strain H77 nt 1823-1955 (other)
chain: GIVPAKSVCGPVYCFTPSPVVVGTTDRSGAPTYSWGANDTDVF
notes: Intersection of yeast two-hybrid prey fragments; also called SID E2 (100%)
For the molecule B1, the binding result in test [1] was “binds”.

B2: SID polypeptide of SEQ ID No 27, NS3 (100%), HCV strain H77 nt 4784-4928 (other)
chain: VSRTQRRGRTGRGKPGIYRFVAPGERPSGMFDSSVLCECYDAGCAWY
notes: Intersection of yeast two-hybrid prey fragments; also called SID NS3 (100%)
With B2, in test [2], the binding result is listed as “binds”.

B3: SID polypeptide of SEQ ID No 21, NS4B (100%), HCV strain H77 nt 5819-6080 (other)
chain: TAFVGAGLAGAAIGSVGLGKVLVDILAGYGAGVAGALVAFKIMSGEVPSTEDLVNLLPAILSPGALVVGVVCAAILRRHVGPGEGA
notes: Intersection of yeast two-hybrid prey fragments; also called SID NS4B (100%)
On to B3, for which the binding result in [3] was “binds”.

B4: SID polypeptide of SEQ ID No 26, NS4B (70%)/NS5A (28%), HCV strain H77 nt 6176-6291 (other)
chain: AILSSLTVTQLLRRLHQWISSECTTPCSGSWLRDIWD
notes: Intersection of yeast two-hybrid prey fragments; also called SID NS4B (70%)/NS5A (28%)
For B4, the binding result in test [4] is “binds”.

B5: Bait polypeptide of SEQ ID No 98, NS4B (30%)/NS5A (69%), HCV strain H77 nt 6107-6605 (other)
chain: ASRGNHVSPTHYVPESDAAARVTAILSSLTVTQLLRRLHQWISSECTTPCSGSWLRDIWDWICEVLSDFKTWLKAKLMPQLPGIPFVSCQRGYRGVWRGDGIMHTRCHCGAEITGHVKNGTMRIVGPRTCRNMWSGTFPINAYTTGPCTPLPAPNYKFALWRVSA
notes: also called Bait NS4B (30%)/NS5A (69%)
Regarding B5, the binding result in test [5] is recorded as “binds”.

B6: SID polypeptide of SEQ ID No 25, E1 (100%), HCV strain H77 nt 1226-1458 (other)
chain: RRHWTTQDCNCSIYPGHITGHRMAWDMMMNWSPTAALVVAQLLRIPQAIMDMIAGAHWGVLAGIAYFSMVGNWAKV
notes: Intersection of yeast two-hybrid prey fragments; also called SID E1 (100%)
Regarding B6, the binding result in test [6] is given as “binds”.

B7: Bait polypeptide of SEQ ID No 103, NS5A (100%), HCV strain H77 nt 6440-6727 (other)
chain: EITGHVKNGTMRIVGPRTCRNMWSGTFPINAYTTGPCTPLPAPNYKFALWRVSAEEYVEIRRVGDFHYVSGMTTDNLKCPCQIPSPEFFTELDG
notes: also called Bait NS5A (100%)
Take B7: in test [7], the binding result is on record as “binds”.

B8: SID polypeptide of SEQ ID No 20, NS5B (100%), HCV strain H77 nt 9083-9222 (other)
chain: not shown
notes: Intersection of yeast two-hybrid prey fragments; also called SID NS5B (100%)
Turning to B8, the binding result in test [8] is “binds”.

B9: SID polypeptide of SEQ ID No 18, NS4B (53%)/NS5A (46%), HCV strain H77 nt 6197-6310 (other)
chain: VTQLLRRLHQWISSECTTPCSGSWLRDIWDWICEVL
notes: Intersection of yeast two-hybrid prey fragments; also called SID NS4B (53%)/NS5A (46%)
As to B9, in test [9], the binding result was “binds”.

B10: SID polypeptide of SEQ ID No 2, NS3 (100%), HCV strain H77 nt 4814-4922 (other)
chain: GRGKPGIYRFVAPGERPSGMFDSSVLCECYDAGCA
notes: as for B2
As to B10, the binding result in test [10] is given as “binds”.

B11: SID polypeptide of SEQ ID No 12, NS5B (100%), HCV strain H77 nt 7979-8109 (other)
chain: not shown
notes: as for B8
As for B11, the binding result in [11] is “binds”.

B12: SID polypeptide of SEQ ID No 3, Core (100%), HCV strain H77 nt 380-616 (other)
chain: NTNRRPQDVKFPGGGQIVGGVYLLPRRGPRLGVRATRKTSERSQPRGRRQPIPKARRPEGRTWAQPGYPWPLYGNEG
notes: Intersection of yeast two-hybrid prey fragments; also called SID Core (100%)
Take B12: the binding result in test [10] is “binds”.

B13: Bait polypeptide of SEQ ID No 91, NS3 (1%)/NS4A (98%), HCV strain H77 nt 5310-5467 (other)
chain: TSTWVLVGGVLAALAAYCLSTGCVVIVGRIVLSGKPAIIPDREVLYQEFDE
notes: also called Bait NS3 (1%)/NS4 A (98%)
As for B13, in test [12], the binding result is “binds”.

B14: SID polypeptide of SEQ ID No 1, Core (100%), HCV strain H77 nt 446-600 (other)
chain: LLPRRGPRLGVRATRKTSERSQPRGRRQPIPKARRPEGRTWAQPGYPWPL
notes: as for B12
Consider B14, for which the binding result in [13] is “binds”.

B15: SID polypeptide of SEQ ID No 15, E2 (100%), HCV strain H77 nt 1871-1968 (other)
chain: PSPVVVGTTDRSGAPTYSWGANDTDVFVLNN
notes: as for B1
On to B15, for which the binding result in test [14] is given as “binds”.

B16: SID polypeptide of SEQ ID No 14, E2 (100%), HCV strain H77 nt 1784-1888 (other)
chain: ERPYCWHYPPRPCGIVPAKSVCGPVYCFTPSPV
notes: as for B1
Consider B16, for which the binding result in [15] is “binds”.
